Patent publication US20170137855A1, “RECOMBINANT CELLS AND METHODS FOR NONPHOSPHORYLATIVE METABOLISM” (REGENTS OF THE UNIVERSITY OF MINNESOTA, priority 2015, published 2017)

System: O=CCCC=O
Assay: Alcohol dehydrogenase YqhD, coupled assay, NADPH consumption
Assay type: biochemical, E. coli
Settings: other: coupled assay, substrate from 0.1-10 mM L-arabonate, 1 mM NADPH, pH 7.5, 10 nM YqhD, 30.0 °C
Description: 2-Ketoacid decarboxylase (Kivd) and alcohol dehydrogenase (YqhD): The decarboxylase activity of Kivd was measured by a coupled enzymatic assay with AraC, AraD, and YqhD (Zhang et al., 2011. ChemSusChem 4:1068-1070). Excess AraC, AraD, and YqhD was used and the oxidation of NADPH was monitored at 340 nm. The assay mixture contained 1 mM NADPH, 1 μM AraC, 1 μM AraD, and 100 nM YqhD and 0.1-10 mM L-arabonate in assay buffer (100 mM Tris-HCl buffer, pH 7.5, 5 mM MgSO4, 0.5 mM ThDP) with a total volume of 0.1 ml. The mixture was incubated at 30° C. for one hour and 10 nM Kivd was added. The dehydrogenase activity of YqhD was assayed according to NADPH initial consumption rates in a coupled assay. The assay mixture contained 1 mM NADPH, 100 nM Kivd, 1 μM AraC, 1 μM AraD, and 0.1-10 mM L-arabonate in 100 μl of 100 mM Tris-HCl buffer (pH 7.5) with 5 mM MgSO4. The mixture was first incubated at 30° C. for one hour. Afterwards, 10 nM YqhD was added and the NADPH consumption rate was monitored.

Substance: E. coli alcohol dehydrogenase YqhD (Escherichia coli K-12)
- Km: 1.9 mM
- kcat: 45.0 s⁻¹
